B1: VRT-22 (Fc fusion)
chain: QITSVWTKGVTPLTPEQFRYYNEDVIHAPYLAHQGWYDITKAFDGKDNLLCGAATAGNMLHWWFDQNKTEIEAYLSKHPEKQKIIFKNQELFDLKAAIDTKDSQTNSQLFNYFRDKAFPGLSARQLGVFPDLVLDMFINGYYLNVFKTQSTDVNRPYQDKDKRGGIFDAVFTRGVQTTLLTARHDLKNKGLNDISTIIKQELTEGRALALSHTYANVRISHVINLWGADFNAEGNLEAIYVTDSDTRASIGMKKYFVGINAHGHVAISAKKIEGENIGAQVLGLFTLSSGKDIWQKLSDKTHTCPPCPAPEAAGAPSVFLFPPKPKDTLMISRTPEVTCVVVDVSHEDPEVKFNWYVDGVEVHNAKTKPREEQQNSTYRVVSVLTVLHQDWLNGKEYKCKVSNKALKAPIEKTISKAKGQPREPQVYTLPPSRDELTKNQVSLTCLVKGFYPSDIAVEWESNGQPENNYKTTPPVLDSDGSFFLYSKLTVDKSRWQQGNVFSCSVMHEALHNHYTQKSLSLSPG
B2: VRT-23 (Fc fusion)
chain: SQTEDSESLQRLRDIEDFQAEKKMQNVVYTKWLDGVDVKDHDFRKIVDGNIAYYATPLLNGRGFYDINKDFNRDNDKCAAAVAANMFHYWLDINRDNVDRFLRQNPEKHGIIELPDEQLKLSDFLNTYESDHGYRDKSKLFDFISNNFNKPVWTDKLLDNYINGYAYNYKYGRTIEDSTKNTSKINFFKEVFNEKILTNIHSIRNQNEFSVLLSEALYTGKAIGLSYGPAGLRHSLGHIISVWGADLDADGNVVAIYVTDSDDKKLTIGDERVGLKRYKISTDDENRLRLTAYEETHNTGGQIRGLWTLDTGKYAWADYFDKTEQTGTDQAEQDKTHTCPPCPAPEAAGAPSVFLFPPKPKDTLMISRTPEVTCVVVDVSHEDPEVKFNWYVDGVEVHNAKTKPREEQQNSTYRVVSVLTVLHQDWLNGKEYKCKVSNKALKAPIEKTISKAKGQPREPQVYTLPPSRDELTKNQVSLTCLVKGFYPSDIAVEWESNGQPENNYKTTPPVLDSDGSFFLYSKLTVDKSRWQQGNVFSCSVMHEALHNHYTQKSLSLSPG
B3: VRT-24 (Fc fusion)
chain: VTSVWTKGVTPPANFTQGEDVFHAPYKANQGWYDITKTFNGKDNLLCGAATAGNMLHWWFDQNKDQIEAYLKEHPEKQKINFNGEQLFDVKEAIDTKDDQTNSKLFEYFKEKAFPYLSTKHLGVFPDHVLDMFINGYRLSLTNHGPTPVKEGSKDKRGGIFDAVFTRGVQSKLLTSRHDFKEKTLKEISDLIKQELTEGKALALSHTYANVRINHVINLWGADFDSNGNLEAIYVTDSDTNASIGMKKYFVGVNSAGKVAISAKEIEDDNIGAQVLGLFTLSTGQDIWNQTNDKTHTCPPCPAPEAAGAPSVFLFPPKPKDTLMISRTPEVTCVVVDVSHEDPEVKFNWYVDGVEVHNAKTKPREEQQNSTYRVVSVLTVLHQDWLNGKEYKCKVSNKALKAPIEKTISKAKGQPREPQVYTLPPSRDELTKNQVSLTCLVKGFYPSDIAVEWESNGQPENNYKTTPPVLDSDGSFFLYSKLTVDKSRWQQGNVFSCSVMHEALHNHYTQKSLSLSPG
B4: VRT-25 (Fc fusion)
chain: VTSVWTKGVTPPANFTQGEDVFHAPYVANQGWYDITKTFNGKDNLLCGAATAGNMLHWWFDQNKDQIERYLKEHPEKQKINFNGEQLFDVKEAIDTKDSQTDSKLFEYFKEKAFPYLSTKHLGVFPDHVLDMFINGYRLSLTNHGPTPVKEGSKDKRGGIFDAVFTRGVQSKLLTSRHDFKEKTLKEISDLIKQELTEGKALGLSHTYANVRINHVINLWGADFDSEGNLKAIYVTDSDTNASIGMKKYFVGVNSAGKVAISAKEIKEDNIGAQVLGLFTLSTGQDIWNQTNDKTHTCPPCPAPEAAGAPSVFLFPPKPKDTLMISRTPEVTCVVVDVSHEDPEVKFNWYVDGVEVHNAKTKPREEQQNSTYRVVSVLTVLHQDWLNGKEYKCKVSNKALKAPIEKTISKAKGQPREPQVYTLPPSRDELTKNQVSLTCLVKGFYPSDIAVEWESNGQPENNYKTTPPVLDSDGSFFLYSKLTVDKSRWQQGNVFSCSVMHEALHNHYTQKSLSLSPG
B5: VRT-26 (Fc fusion)
chain: VTSVWTKGVTPPTNFTYGEDVLHAPYVANQGWYDITKTFNGKDNLLCGAATAGNMLHWWFDQNKEQIENYLKKHPEKQKINFNGEQLFDVKEAIDTKDSQLDSKLFEYFKEKAFPYLSTKHLGVFPDHVIDMFINGYRLSLTNHGPTPVKRGSKDKRGGIFDAVFTRGVQSKLLTNRHDFKEKTLKEISDLIKQELTEGKALGISHTYANVRINHVINLWGADFDAEGNLEAIYVTDSDTNASIGMKKYFVGVNSNGKVAISAKEIEEDNIGAQVLGLFTLSTGQDIWNQTNDKTHTCPPCPAPEAAGAPSVFLFPPKPKDTLMISRTPEVTCVVVDVSHEDPEVKFNWYVDGVEVHNAKTKPREEQQNSTYRVVSVLTVLHQDWLNGKEYKCKVSNKALKAPIEKTISKAKGQPREPQVYTLPPSRDELTKNQVSLTCLVKGFYPSDIAVEWESNGQPENNYKTTPPVLDSDGSFFLYSKLTVDKSRWQQGNVFSCSVMHEALHNHYTQKSLSLSPG
B6: VRT-27 (Fc fusion)
chain: VTSVWTKGVTPPADFTQGEDVFHAPYVANQGWYDITKTFNGKDNLLCGAATAGNMLHWWFDQNKEYIEAYLKKHPEKQKIIFGDQELLDVRKAINTKGSQKNSELFNYFRDKAFPNLSARRLGVFPDLVLDMFINGYYLNVTKTQTTDVNRTYQEKDKRGGIFDAVFTRGVQSKLLTSRHDFKEKGLKEISDLIKQELTEGKALGLSHTYANVRINHVINLWGADFDSDGNLKAIYVTDSDTNASIGMKKYFVGVNSAGKVAISAKEIKEDNIGAQVLGLFTLSTGQDIWNQTNDKTHTCPPCPAPEAAGAPSVFLFPPKPKDTLMISRTPEVTCVVVDVSHEDPEVKFNWYVDGVEVHNAKTKPREEQQNSTYRVVSVLTVLHQDWLNGKEYKCKVSNKALKAPIEKTISKAKGQPREPQVYTLPPSRDELTKNQVSLTCLVKGFYPSDIAVEWESNGQPENNYKTTPPVLDSDGSFFLYSKLTVDKSRWQQGNVFSCSVMHEALHNHYTQKSLSLSPG
B7: VRT-28 (Fc fusion)
chain: ITSVWTKGVTPPAKFTQGEDVFHAPYVANQGWYDITKTFNGKDNLLCGAATAGNMLHWWFDQNKEEIEAYLKKHPEKQKIIFGDQELLDVRKVINTKDSQTNSALFNYFKDKAFPNLSARRLGVFPDLVLDMFINGYYLNVYKTQTTDVNRTYQTKDRRGGIFDAVFTRGVQSKLLTERHDFKEKTLKEISDLIKQELTEGKALGLSHTYANVRINHVINLWGADFDSNGNLEAIYVTDSDTNASIGMKKYFVGVNSAGKVAISAKEIKEDNIGAQVLGLFTLSTGQDIWNQTNDKTHTCPPCPAPEAAGAPSVFLFPPKPKDTLMISRTPEVTCVVVDVSHEDPEVKFNWYVDGVEVHNAKTKPREEQQNSTYRVVSVLTVLHQDWLNGKEYKCKVSNKALKAPIEKTISKAKGQPREPQVYTLPPSRDELTKNQVSLTCLVKGFYPSDIAVEWESNGQPENNYKTTPPVLDSDGSFFLYSKLTVDKSRWQQGNVFSCSVMHEALHNHYTQKSLSLSPG

These binders were tested against pooled human IgG (human) (assay: cell-based or functional assay).

B1 was tested. Which Enzyme Activity Endpoint Assay: Fab′2 did it give?
The Enzyme Activity Endpoint Assay: Fab′2 was 0 ng/µL.

What about the Enzyme Activity Endpoint Assay: Fc of the same binder?
Its Enzyme Activity Endpoint Assay: Fc is 31 ng/µL.

What about the Enzyme Activity Endpoint Assay: IgG of the same binder?
Its Enzyme Activity Endpoint Assay: IgG is 1010 ng/µL.

What about the Enzyme Activity Endpoint Assay: scIgG of the same binder?
The Enzyme Activity Endpoint Assay: scIgG was 21 ng/µL.

For B2, which Enzyme Activity Endpoint Assay: Fab′2 is on record?
The Enzyme Activity Endpoint Assay: Fab′2 was 0 ng/µL.

What about the Enzyme Activity Endpoint Assay: Fc of the same binder?
Its Enzyme Activity Endpoint Assay: Fc is 29 ng/µL.

What about the Enzyme Activity Endpoint Assay: IgG of the same binder?
The Enzyme Activity Endpoint Assay: IgG was 1010 ng/µL.

What about the Enzyme Activity Endpoint Assay: scIgG of the same binder?
The Enzyme Activity Endpoint Assay: scIgG was 20 ng/µL.

For B3, which Enzyme Activity Endpoint Assay: Fab′2 is on record?
Its Enzyme Activity Endpoint Assay: Fab′2 is 0 ng/µL.

What about the Enzyme Activity Endpoint Assay: Fc of the same binder?
Its Enzyme Activity Endpoint Assay: Fc is 187 ng/µL.

And the Enzyme Activity Endpoint Assay: IgG?
The Enzyme Activity Endpoint Assay: IgG was 392 ng/µL.

What about the Enzyme Activity Endpoint Assay: scIgG of the same binder?
The Enzyme Activity Endpoint Assay: scIgG was 249 ng/µL.

Which results are given for B4?
Enzyme Activity Endpoint Assay: Fab′2: 12 ng/µL; Enzyme Activity Endpoint Assay: Fc: 204 ng/µL; Enzyme Activity Endpoint Assay: IgG: 183 ng/µL; Enzyme Activity Endpoint Assay: scIgG: 284 ng/µL

With B5 as the binder, how does the Enzyme Activity Endpoint Assay: Fab′2 read?
Its Enzyme Activity Endpoint Assay: Fab′2 is 0 ng/µL.

What about the Enzyme Activity Endpoint Assay: Fc of the same binder?
Its Enzyme Activity Endpoint Assay: Fc is 213 ng/µL.

And the Enzyme Activity Endpoint Assay: IgG?
The Enzyme Activity Endpoint Assay: IgG was 303 ng/µL.

What about the Enzyme Activity Endpoint Assay: scIgG of the same binder?
Its Enzyme Activity Endpoint Assay: scIgG is 342 ng/µL.

For B6, which Enzyme Activity Endpoint Assay: Fab′2 is on record?
The Enzyme Activity Endpoint Assay: Fab′2 was 0 ng/µL.

What about the Enzyme Activity Endpoint Assay: Fc of the same binder?
Its Enzyme Activity Endpoint Assay: Fc is 92 ng/µL.

What about the Enzyme Activity Endpoint Assay: IgG of the same binder?
The Enzyme Activity Endpoint Assay: IgG was 1150 ng/µL.

What about the Enzyme Activity Endpoint Assay: scIgG of the same binder?
Its Enzyme Activity Endpoint Assay: scIgG is 33 ng/µL.

B7 was tested. Which Enzyme Activity Endpoint Assay: Fab′2 did it give?
Its Enzyme Activity Endpoint Assay: Fab′2 is 0 ng/µL.

And the Enzyme Activity Endpoint Assay: Fc?
Its Enzyme Activity Endpoint Assay: Fc is 3 ng/µL.

And the Enzyme Activity Endpoint Assay: IgG?
Its Enzyme Activity Endpoint Assay: IgG is 987 ng/µL.

And the Enzyme Activity Endpoint Assay: scIgG?
Its Enzyme Activity Endpoint Assay: scIgG is 22 ng/µL.

Reference: patent US20250027068A1
